According to patent US20160030544A1:

Target: fH6-7 (factor H CCP domains 6-7) (UniProt P08603)
Assay: SPR, Biacore 3000, protein on CM5 chip, fH6-7 as analyte

Sequence of fH6-7 (factor H CCP domains 6-7) (P08603 321-443 limits assumed): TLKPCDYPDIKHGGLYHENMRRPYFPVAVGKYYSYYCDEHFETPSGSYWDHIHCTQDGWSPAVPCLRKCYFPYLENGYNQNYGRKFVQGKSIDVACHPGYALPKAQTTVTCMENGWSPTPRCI

V3.45 fHbp (variant 3 factor H binding protein of N. meningitidis), recombinant wild type
Kd: 1 nM
